Source: patent publication US20120114557A1

How the values were obtained:
[1] = target: rat collagen type I (rat) (UniProt P02454); assay: dried collagen assay, chelate conjugate
[2] = target: human collagen type I (human) (UniProt P02452); assay: dried collagen assay, chelate conjugate
Sequence of human collagen type I (human) (P02452 162-1218 limits assumed, chain 1 of 2): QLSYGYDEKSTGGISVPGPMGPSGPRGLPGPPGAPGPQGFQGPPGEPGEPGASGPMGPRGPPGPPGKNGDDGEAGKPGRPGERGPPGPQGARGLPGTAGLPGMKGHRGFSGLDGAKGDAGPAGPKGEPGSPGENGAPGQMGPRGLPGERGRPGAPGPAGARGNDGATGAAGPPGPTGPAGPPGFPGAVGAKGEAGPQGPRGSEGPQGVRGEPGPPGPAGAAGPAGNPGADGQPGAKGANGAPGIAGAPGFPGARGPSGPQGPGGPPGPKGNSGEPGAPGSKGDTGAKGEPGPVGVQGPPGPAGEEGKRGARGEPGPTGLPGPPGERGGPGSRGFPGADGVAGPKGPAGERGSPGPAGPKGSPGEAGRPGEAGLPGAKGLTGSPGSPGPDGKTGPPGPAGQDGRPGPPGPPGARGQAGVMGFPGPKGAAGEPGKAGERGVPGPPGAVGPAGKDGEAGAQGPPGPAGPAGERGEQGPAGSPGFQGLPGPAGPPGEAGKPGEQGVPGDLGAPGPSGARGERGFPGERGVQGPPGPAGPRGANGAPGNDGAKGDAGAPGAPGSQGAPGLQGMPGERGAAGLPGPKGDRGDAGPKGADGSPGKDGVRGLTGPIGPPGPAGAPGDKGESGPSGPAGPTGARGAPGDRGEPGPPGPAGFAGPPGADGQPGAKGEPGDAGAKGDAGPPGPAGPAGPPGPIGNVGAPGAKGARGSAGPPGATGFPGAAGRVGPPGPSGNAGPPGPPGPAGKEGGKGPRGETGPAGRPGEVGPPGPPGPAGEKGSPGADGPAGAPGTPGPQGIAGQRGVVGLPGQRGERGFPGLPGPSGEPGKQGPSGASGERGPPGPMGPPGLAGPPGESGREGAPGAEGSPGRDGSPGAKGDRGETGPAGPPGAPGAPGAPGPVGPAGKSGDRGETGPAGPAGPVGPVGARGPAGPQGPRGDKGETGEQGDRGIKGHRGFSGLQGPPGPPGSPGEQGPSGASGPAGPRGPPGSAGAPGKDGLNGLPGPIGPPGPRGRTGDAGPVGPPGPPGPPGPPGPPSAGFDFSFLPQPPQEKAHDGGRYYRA
Sequence of human collagen type I (human) (P08123 80-1119 limits assumed, chain 2 of 2, further chain): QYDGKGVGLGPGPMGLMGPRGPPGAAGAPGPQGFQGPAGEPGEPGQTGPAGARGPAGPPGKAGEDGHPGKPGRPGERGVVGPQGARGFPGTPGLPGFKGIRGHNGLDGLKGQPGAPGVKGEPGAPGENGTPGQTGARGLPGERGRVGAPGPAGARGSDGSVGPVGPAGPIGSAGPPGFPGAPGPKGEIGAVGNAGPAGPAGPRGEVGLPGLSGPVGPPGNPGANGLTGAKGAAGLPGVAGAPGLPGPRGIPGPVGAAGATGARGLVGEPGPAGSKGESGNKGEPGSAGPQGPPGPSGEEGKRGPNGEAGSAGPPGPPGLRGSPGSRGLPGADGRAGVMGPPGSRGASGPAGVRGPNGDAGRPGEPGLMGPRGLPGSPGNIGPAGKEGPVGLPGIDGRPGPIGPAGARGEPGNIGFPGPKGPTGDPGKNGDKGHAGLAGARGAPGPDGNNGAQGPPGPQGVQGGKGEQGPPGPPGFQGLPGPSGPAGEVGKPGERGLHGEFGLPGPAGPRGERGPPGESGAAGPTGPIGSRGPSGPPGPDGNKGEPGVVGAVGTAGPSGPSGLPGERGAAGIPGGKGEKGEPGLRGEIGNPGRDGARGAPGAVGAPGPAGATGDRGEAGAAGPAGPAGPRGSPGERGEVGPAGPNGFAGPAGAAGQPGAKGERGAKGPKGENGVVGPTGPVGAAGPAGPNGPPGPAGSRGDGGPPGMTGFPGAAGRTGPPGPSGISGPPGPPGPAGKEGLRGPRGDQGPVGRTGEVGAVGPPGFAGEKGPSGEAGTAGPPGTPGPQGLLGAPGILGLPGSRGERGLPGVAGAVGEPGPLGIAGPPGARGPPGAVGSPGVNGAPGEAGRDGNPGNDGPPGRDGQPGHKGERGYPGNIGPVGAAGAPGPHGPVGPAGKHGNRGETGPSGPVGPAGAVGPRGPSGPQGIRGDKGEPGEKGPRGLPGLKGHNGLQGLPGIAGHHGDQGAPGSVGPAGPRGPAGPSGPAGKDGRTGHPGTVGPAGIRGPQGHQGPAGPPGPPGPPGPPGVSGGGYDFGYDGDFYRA

Sequence of rat collagen type I (rat) (P02454 152-1207, chain 1 of 2): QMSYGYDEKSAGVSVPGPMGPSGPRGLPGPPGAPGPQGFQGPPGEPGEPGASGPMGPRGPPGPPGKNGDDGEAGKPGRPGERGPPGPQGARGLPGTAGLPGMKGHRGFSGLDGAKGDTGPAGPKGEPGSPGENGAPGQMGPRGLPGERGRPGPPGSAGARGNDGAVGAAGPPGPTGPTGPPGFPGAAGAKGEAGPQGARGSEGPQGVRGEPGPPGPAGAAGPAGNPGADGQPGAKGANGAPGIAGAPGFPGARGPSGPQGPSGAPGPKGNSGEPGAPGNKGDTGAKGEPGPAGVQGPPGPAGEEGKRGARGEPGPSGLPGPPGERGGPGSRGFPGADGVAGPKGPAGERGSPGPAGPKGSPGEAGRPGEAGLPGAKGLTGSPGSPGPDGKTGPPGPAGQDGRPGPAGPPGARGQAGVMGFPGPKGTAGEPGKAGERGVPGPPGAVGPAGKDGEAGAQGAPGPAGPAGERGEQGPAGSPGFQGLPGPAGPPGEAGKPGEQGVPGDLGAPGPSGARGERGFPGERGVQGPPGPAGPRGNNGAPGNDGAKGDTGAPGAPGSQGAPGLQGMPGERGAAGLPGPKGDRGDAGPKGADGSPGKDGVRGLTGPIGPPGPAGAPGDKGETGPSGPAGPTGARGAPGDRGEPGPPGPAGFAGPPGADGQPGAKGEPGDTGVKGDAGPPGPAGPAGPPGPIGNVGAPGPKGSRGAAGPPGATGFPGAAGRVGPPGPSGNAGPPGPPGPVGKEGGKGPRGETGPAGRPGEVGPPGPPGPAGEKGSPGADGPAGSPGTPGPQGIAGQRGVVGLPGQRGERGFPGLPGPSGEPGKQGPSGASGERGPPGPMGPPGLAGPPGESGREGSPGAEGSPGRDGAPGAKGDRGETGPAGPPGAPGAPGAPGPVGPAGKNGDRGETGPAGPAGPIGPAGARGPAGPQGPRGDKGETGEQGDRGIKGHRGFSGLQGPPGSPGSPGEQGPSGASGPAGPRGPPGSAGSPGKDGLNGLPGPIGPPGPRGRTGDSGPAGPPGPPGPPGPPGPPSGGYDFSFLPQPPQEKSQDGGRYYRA
Sequence of rat collagen type I (rat) (P02466 86-1125, chain 2 of 2, further chain): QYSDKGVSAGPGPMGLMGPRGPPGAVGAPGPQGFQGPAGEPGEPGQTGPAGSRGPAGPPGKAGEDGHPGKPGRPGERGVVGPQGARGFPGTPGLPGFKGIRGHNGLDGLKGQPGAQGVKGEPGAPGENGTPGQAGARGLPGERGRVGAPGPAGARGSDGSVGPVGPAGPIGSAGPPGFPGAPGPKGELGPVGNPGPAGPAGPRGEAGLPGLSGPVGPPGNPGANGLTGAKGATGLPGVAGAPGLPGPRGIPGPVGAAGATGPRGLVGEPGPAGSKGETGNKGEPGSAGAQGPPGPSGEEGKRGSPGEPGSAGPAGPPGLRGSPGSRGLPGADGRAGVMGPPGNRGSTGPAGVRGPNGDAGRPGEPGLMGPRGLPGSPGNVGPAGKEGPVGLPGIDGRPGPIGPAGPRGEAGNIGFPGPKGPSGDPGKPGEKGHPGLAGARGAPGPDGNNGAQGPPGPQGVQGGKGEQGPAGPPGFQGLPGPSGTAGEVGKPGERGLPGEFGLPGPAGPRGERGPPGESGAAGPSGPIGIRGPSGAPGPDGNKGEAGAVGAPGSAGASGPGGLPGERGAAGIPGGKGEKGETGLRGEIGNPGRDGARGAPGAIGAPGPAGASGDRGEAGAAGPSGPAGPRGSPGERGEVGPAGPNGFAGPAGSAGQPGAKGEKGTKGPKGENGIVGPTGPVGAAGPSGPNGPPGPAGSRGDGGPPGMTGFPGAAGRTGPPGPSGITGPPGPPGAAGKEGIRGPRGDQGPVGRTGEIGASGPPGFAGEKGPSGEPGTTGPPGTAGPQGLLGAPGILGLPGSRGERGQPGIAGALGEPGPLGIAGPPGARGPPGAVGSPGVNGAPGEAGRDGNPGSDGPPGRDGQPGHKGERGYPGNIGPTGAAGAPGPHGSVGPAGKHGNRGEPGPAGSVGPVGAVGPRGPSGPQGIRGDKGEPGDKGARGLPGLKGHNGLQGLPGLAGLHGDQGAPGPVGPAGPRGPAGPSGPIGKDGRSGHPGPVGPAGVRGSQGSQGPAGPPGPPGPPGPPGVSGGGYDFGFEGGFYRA

% Binding Collagen I, Rat [1]: 5%
% Binding Collagen I, Human [2]: 28%
Substance: Glu-DTPA-Gd-PEG(20)-G-Q-W-T-C-S-G-D-E-Y-T-W-H-C-N-Y-e (peptide)
